The data set relates to Nme2Cas9 (Neisseria meningitidis). In words: cell_activity. Particulars: PAM N4CC; HEK293T, TIDE.
For the sequence “GCCUCCCUGCAGGGCUGCUCCC / GCCTCCCTGCAGGGCTGCTCCCCAGCCCAA / TTGGGCTGGGGAGCAGCCCTGCAGGGAGGC [TS6 sgRNA spacer ; TS6 LINC01588 target + PAM]”, the activity came out at 20 % indels.

“GUGUGUCCCUCUCCCCACCCGUCC / GTGTGTCCCTCTCCCCACCCGTCCCTGTCCGG / CCGGACAGGGACGGGTGGGGAGAGGGACACAC [TS47 sgRNA spacer ; TS47 VEGFA target + PAM]” came in with an activity of 23.1 % indels.

As for “GGAGUCGCCAGAGGCCGGUGGUGG / GGAGTCGCCAGAGGCCGGTGGTGGATTTCCTC / GAGGAAATCCACCACCGGCCTCTGGCGACTCC [TS16 sgRNA spacer ; TS16 LINC01588 target + PAM]”, the activity amounted to 28 % indels.

The record behind these values is patent US20220290113.
